Assay results: patent publication US9803012B2, “Compositions and methods for regulating SAS1R” (UNIVERSITY OF VIRGINIA PATENT FOUNDATION, priority 2005, dated 2017)

Tests used:
zona-free mouse eggs = test: In vitro fertilization with zona-free eggs (sperm-oolemma binding and fusion); type: cell-based
Method: For the sperm-oolemma binding assay, two cauda epididymides were placed in 900 μl drops of fertilization medium under paraffin oil for the dense mass of spermatozoa to flow freely for ˜15 min and then diluted at 1×10^6/ml for 3 h of capacitation. Cumulus oocyte complexes were placed in 200 μl drops of TYH medium under paraffin oil. Cumulus cells were removed by treating the oocytes for 3 min with 1 mg/ml hyaluronidase in TYH medium and then washed 8 times in 50 μl drops. Zona pellucidae were loosened by treating the oocytes with 10 μg/ml chymotrypsin in TYH media for 1 min and loosened zonae were removed by mechanical agitation using a pulled Pasteur pipette. The oocytes were then washed 10 times and allowed to recover from chymotrypsin treatment by incubating in TYH media for 3 h, following which, they were stained with 10 μg/ml Hoechst dye for 10 min, and then gently washed. […]
To compare the effects of recmSLLP1 with human and chicken c lysozymes, spermatozoa were first incubated under standard capacitating conditions. Oocytes were pre-incubated for 45 min before insemination with recmSLLP1 (0.1 to 200 μg/ml) or with hSLLP1 (25 μg/ml) or with chicken or human lysozyme (50 μg/ml, 100 μg/ml). Untreated capacitated sperm were then added to the incubation drops containing the treated eggs with a final sperm concentration of 2.5×10^4/ml. Thus, in all the experiments performed the sera, the recombinant protein, or the lysozyme was present in the incubation droplet during gamete interaction. After 30 min of gamete co-incubation, oocytes were gently washed 5 times in TYH medium and placed between a microscope slide and an elevated coverslip and visualized at 160×. Binding to the oocyte was scored by counting the number of bound spermatozoa per oocyte using phase contrast. Fusion with the egg was scored by counting the number of decondensed sperm heads within each oocyte using fluorescence microscopy.

cumulus intact oocytes = test: In vitro fertilization with cumulus-oocyte complexes (SLLP1 antiserum, recmSLLP1); type: cell-based, mouse; details: for % Fertilization: oocytes 45 min prior to insemination
Method: Hybrid F1 mice (C57BL/6J×CBA) were used in all experiments. Suspensions of epididymal spermatozoa from sexually mature male mice were prepared for insemination of isolated oocytes. Oocytes were obtained from 28-day-old females superovulated with 10 IU PMSG and 10 IU hCG, injected intraperitoneally 48 h apart. Females were killed 16 h after hCG injection and both oviducts were immediately removed and placed in mineral oil.
In vitro fertilization with cumulus intact oocytes was conducted with sperm dispersed from cauda epididymides placed for 5 min in 200 μl drops of fertilization medium under paraffin oil. The sperm suspension was diluted to a concentration of 10^6 sperm/ml in a volume of 200 μl and then incubated for 120 min in a humidified tissue culture incubator (37° C., 5% CO2 in air) to allow capacitation. In the experiments where anti-recmSLLP1 serum was tested, spermatozoa were incubated with varying concentrations of decomplemented (56° C., 30 min) immune or preimmune serum for the last 45 min of capacitation. In the experiments where recmSLLP1 was evaluated, spermatozoa were incubated under standard capacitating conditions.
Cumulus masses were placed in 135 μl drops of fertilization medium (one mass per drop) under paraffin oil and were incubated for 45 min with immune or preimmune serum or in presence or absence of recmSLLP1 prior to insemination. Fifteen μl of the sperm suspension (final concentration: 10^5 sperm/ml) was then added to each cumulus mass drop. Thus, sera or recombinant protein was present in the incubation droplet during gamete interaction. Six hours following insemination oocytes were relocated in 100 μl drops of fertilization medium under mineral oil. Following overnight incubation, eggs were stained in Hoechst dye (10 μg/ml) for 10 min and washed 3 times in fertilization medium. The eggs were then placed in a 5 μl drop of fertilization medium between a microscope slide and an elevated coverslip, and visualized at 160× using light and fluorescence microscopy (Zeiss Axioplan). Two cells embryos were scored as fertilized, while one-celled oocytes were scored as unfertilized.

[1] = recmSLLP1 200 μg/ml (12.5 μM), oocytes pre-incubated
[2] = relative to the controls, including recombinant egg protein ePAD

B1: recmSLLP1: mature mouse SLLP1, residues 94 to 221, six-histidine C terminal tag, expressed in E. coli, about 15 kDa (protein)
chain: KVFSRCELAKEMHDFGLDGYRGYNLADWVCLAYYTSGFNTNAVDHEADGSTNNGIFQISSRRWCRTLASNGPNLCRIYCTDLLNNDLKDSIVCAMKIVQEPLGLGYWEAWRHHCQGRDLSDWVDGCDF
modifications: left off: small tags and cut ends
sperm-egg binding and fusion (zona-free mouse eggs; 50 μg of mouse SLLP1): maximally inhibited | inhibition of binding (zona-free mouse eggs; [1]): 100% | inhibition of fusion (zona-free mouse eggs; [1]): 100% | lowest concentration with significant effect on spermatozoa bound to or fused to the egg (zona-free mouse eggs; recmSLLP1 0.1-200 μg/ml): 0.1 µg/mL | sperm-egg binding, number of sperm bound/egg (zona-free mouse eggs; [2]): essentially completely inhibit | sperm-egg fusion (zona-free mouse eggs; [2]): essentially completely inhibit | difference in percentage of fertilization vs control (cumulus intact oocytes; recmSLLP1 50 μg/ml): no significant difference | % Fertilization (cumulus intact oocytes; recmSLLP1 50 μg/ml): 48% | inhibition of fertilization rate vs control (cumulus intact oocytes; recmSLLP1 200 μg/ml, P≦0.05): 73% | % Fertilization (cumulus intact oocytes; recmSLLP1 200 μg/ml): 12%
